Results from paper PMC4771821, “Structural and spectroscopic characterisation of a heme peroxidase from sorghum” (Journal of Biological Inorganic Chemistry, 2015).

Substrate: COc1ccccc1O
Assay: purified protein
Assay type: biochemical, Sorghum bicolor
Conditions: heme; Ca2+ raises activity

B1: SK 5912 sorghum peroxidase (cationic class III peroxidase) (Sorghum bicolor) (protein)
chain: ARQPPLAPGLSFDFYKRSCPKAESIVRSFVQDAVRRDVGLAAGLLRLHFHDCFVQGCDASVLLDGSATGPGEQQAPPNLTLRPTAFKAINDIHDRLHKECGGTVVSCSDVLALAARDSVVVSGGPSYKVPLGRRDSASFATQQDVLSGLPPPTAAVPALLAVLSKINLDATDLVALSGGHTIGLGHCTSFEDRLFPRPDPTLNATFAGQLRRTCPAKGTDRRTPLDVRTPNAFDNKYYVNLVNREGLFTSDQDLFSNARTRALVDKFARSQRDFFDQFAFSVVKMGQIKVLTGTQGQIRTNCSARNAAGTTMLPWSVSVVEEAADESLGVF
notes: native enzyme isolated from grain
In the case of B1, the Km is reported as 1600 ± 400 µM.
